The source of these data is patent publication US20260139023A1.

The assay addresses full-length integrin αVβ5 ectopically expressed on HEK293T cells (UniProt P06756). The assay is described as follows: cell-based or functional assay.

Chain of full-length integrin αVβ5 ectopically expressed on HEK293T cells (P06756 31-1048 limits assumed, chain 1 of 2): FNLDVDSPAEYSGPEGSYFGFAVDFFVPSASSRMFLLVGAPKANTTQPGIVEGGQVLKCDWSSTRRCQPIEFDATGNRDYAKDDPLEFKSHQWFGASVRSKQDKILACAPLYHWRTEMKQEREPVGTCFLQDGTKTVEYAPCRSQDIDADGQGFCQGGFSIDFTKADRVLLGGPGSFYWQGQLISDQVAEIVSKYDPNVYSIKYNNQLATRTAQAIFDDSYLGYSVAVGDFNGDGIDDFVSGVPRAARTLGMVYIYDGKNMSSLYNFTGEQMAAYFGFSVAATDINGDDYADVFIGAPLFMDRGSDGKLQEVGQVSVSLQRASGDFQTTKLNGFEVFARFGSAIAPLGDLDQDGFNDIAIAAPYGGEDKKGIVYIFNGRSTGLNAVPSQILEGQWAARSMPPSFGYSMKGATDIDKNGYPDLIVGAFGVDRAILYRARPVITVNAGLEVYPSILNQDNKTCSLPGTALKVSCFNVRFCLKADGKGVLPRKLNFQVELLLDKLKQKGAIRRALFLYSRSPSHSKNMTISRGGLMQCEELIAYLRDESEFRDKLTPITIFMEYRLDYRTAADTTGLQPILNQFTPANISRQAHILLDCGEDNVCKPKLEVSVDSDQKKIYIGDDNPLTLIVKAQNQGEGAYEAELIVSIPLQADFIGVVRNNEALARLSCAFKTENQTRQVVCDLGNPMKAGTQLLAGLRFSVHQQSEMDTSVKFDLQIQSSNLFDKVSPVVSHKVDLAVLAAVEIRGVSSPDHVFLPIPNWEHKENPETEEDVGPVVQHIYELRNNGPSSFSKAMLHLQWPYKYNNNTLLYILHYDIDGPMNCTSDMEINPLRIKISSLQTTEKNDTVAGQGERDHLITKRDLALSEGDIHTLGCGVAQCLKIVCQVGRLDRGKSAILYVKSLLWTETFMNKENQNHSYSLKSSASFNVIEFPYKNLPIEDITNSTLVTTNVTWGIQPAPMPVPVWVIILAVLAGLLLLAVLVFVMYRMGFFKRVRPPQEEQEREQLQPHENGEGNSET
Chain of full-length integrin αVβ5 ectopically expressed on HEK293T cells (P18084 24-799 limits assumed, chain 2 of 2, further chain): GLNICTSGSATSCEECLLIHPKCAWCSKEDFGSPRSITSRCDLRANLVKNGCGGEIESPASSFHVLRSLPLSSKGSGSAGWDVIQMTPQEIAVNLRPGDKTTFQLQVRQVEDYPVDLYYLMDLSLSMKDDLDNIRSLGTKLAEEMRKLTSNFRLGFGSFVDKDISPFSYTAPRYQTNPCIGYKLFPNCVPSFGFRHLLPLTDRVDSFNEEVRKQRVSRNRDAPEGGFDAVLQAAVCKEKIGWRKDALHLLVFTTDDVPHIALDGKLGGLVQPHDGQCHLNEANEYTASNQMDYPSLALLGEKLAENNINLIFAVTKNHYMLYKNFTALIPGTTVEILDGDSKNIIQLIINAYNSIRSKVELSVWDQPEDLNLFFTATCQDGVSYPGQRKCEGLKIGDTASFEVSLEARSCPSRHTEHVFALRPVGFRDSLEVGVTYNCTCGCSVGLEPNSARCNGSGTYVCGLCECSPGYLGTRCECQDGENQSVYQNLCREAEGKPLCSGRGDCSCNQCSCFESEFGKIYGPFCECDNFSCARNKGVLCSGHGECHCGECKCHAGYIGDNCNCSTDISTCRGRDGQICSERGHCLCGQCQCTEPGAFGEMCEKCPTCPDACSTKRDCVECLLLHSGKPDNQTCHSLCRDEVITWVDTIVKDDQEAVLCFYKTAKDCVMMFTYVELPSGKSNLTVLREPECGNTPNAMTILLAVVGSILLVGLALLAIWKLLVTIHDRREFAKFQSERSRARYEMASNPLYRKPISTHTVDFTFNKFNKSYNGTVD

As to “irisin N45Q mutant (irisin glycosylation mutant, recombinant, from mammalian Expi293 cells) (from UniProt Q8K3V5 60-171) (ligand)”, the concentration at maximal integrin signaling (pFAK western blot, HEK293T cells pretreated with Hsp90α) came to 0.1 nM and the fold more potent integrin signaling than WT irisin was 5 to 10 fold.
